{"source": "paper PMC8487046", "molecular_target": "acetylated BSA (AcBSA) (bovine (from the name BSA)) (UniProt P02769)", "test": "SPR; AcBSA immobilized (900 RU, CM5, amine coupling; BSA as reference surface), serially diluted SREC-II(44-442) or SR-F1(20-421) injected; TBS-Ca-P; 20 µL/min; 25 °C; global fit, 1:1 Langmuir model; apparent KD"}
{"binder": "SR‐F1(20‐421), SR‐F1 ectodomain (domain or fragment) SELDPKGQHVCVASSPSAELQCCAGWRQKDQECTIPICEGPDACQKDEVCVKPGLCRCKPGFFGAHCSSRCPGQYWGPDCRESCPCHPHGQCEPATGACQCQADRWGARCEFPCACGPHGRCDPATGVCHCEPGWWSSTCRRPCQCNTAAARCEQATGACVCKPGWWGRRCSFRCNCHGSPCEQDSGRCACRPGWWGPECQQQCECVRGRCSAASGECTCPPGFRGARCELPCPAGSHGVQCAHSCGRCKHNEPCSPDTGSCESCEPGWNGTQCQQPCLPGTFGESCEQQCPHCRHGEACEPDTGHCQRCDPGWLGPRCEDPCPTGTFGEDCGSTCPTCVQGSCDTVTGDCVCSAGYWGPSCNASCPAGFHGNNCSVPCECPEGLCHPVSGSCQPGSGSRDT", "values": [{"measurement": "Kd", "value": 790, "unit": "nM"}, {"measurement": "koff", "value": 0.0015, "unit": "s⁻¹"}, {"measurement": "kon", "value": 2000, "unit": "M⁻¹ s⁻¹"}]}
